Measured values reported in publication PMC3511393, “Identification and Characterisation of the RalA-ERp57 Interaction: Evidence for GDI Activity of ERp57” (PLoS ONE, 2012).

Molecular target: T1, 6xHis-ERp57 (human, UniProt P30101 24-505)
T1 construct: ERp57, human cDNA without the region encoding the N-terminal signal peptide (amino acids 1-23); also called wt ERp57; wild-type 6xHis-ERp57; source: E. coli, purified (Ni-NTA); not shown: 6xHis, N-terminal, kept
T1 sequence (looked up): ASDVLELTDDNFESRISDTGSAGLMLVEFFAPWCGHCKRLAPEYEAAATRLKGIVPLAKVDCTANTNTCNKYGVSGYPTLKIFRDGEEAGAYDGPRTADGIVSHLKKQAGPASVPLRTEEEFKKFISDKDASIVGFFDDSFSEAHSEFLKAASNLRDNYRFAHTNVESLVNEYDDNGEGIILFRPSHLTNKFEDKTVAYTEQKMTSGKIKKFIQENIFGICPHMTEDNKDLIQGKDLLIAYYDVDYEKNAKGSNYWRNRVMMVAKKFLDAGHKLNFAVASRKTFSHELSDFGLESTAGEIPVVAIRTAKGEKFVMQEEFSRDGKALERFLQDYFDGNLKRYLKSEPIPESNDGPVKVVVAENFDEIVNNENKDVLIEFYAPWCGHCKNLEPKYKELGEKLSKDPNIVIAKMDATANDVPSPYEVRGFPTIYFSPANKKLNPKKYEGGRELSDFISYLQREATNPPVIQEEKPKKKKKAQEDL
Assay: pull-down; GST-RalA loaded with GDP as bait; purified 6xHis-ERp57 or mutants; Western blot with anti-6xHis antibody; with or without 1 mM DTT
Conditions: both partners purified

binding result: binds
B1: GST-RalA (natural protein, simian, UniProt P63320 1-206, looked up)
chain: MAANKPKGQNSLALHKVIMVGSGGVGKSALTLQFMYDEFVEDYEPTKADSYRKKVVLDGEEVQIDILDTAGQEDYAAIRDNYFRSGEGFLCVFSITEMESFAATADFREQILRVKEDENVPFLLVGNKSDLEDKRQVSVEEAKNRADQWNVNYVETSAKTRANVDKVFFDLMREIRARKMEDSKEKNGKKKRKSLAKRIRERCCIL
notes: RalA, simian cDNA (pGEX-2T-RalA from Yoshito Kaziro); loaded with GDP or GTP immediately before use; Nucleotide state (GDP or GTP) is told by the assay; also called RalA-GDP; RalA-GTP; source: when necessary eluted with reduced GSH and dialysed; not shown: GST, N-terminal, kept
